According to the supplement of paper PMC10126150:
± gives the standard deviation of the averaged measurements.

Test system: ATP
Experiment: switch fluorescence ratio, 500 uM ATP over buffer (Cy3 cluster intensity, sum of 5 cycles each) (fold (ratio)); higher = stronger signal-on switching upon ATP binding; sequences stand for … in TCGTCGGCAGCGTCAGATGTGTATAAGAGACAGTTTTTTTTTTTTTTTTTTTTTTTTT…TC
Conditions: aptamer strand: ATP DNA aptamer (quencher-CACCTGGGGGAGTATTGCGGAGGAAGG + anchor), 100 nM annealed; ATP concentration: 500 uM
In short: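 Cy3-labelled switching-strand clusters on a modified Illumina MiSeq flow-cell were annealed to 100 nM quencher-labelled ATP aptamer and imaged first in selection buffer, then after 15 min with 500 uM ATP at 22 °C. NaOH stripping and re-annealing separated each of five buffer/ATP cycles, and clusters outside 100-1000 RFU were excluded. The fluorescence ratio sums target-cycle Cy3 intensity over buffer-cycle Cy3 intensity per cluster and averages it per switch-domain sequence.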
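Also: ATP exposure 15 min at 22 °C before imaging.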

AAGGCTGAGT
switch fluorescence ratio: 1 ± 0.0011

AAGGCTGGCT
switch fluorescence ratio: 0.99 ± 0.027

AAGGCTGTAC
switch fluorescence ratio: 1.71 ± 0.1

AAGGCTGTCT
switch fluorescence ratio: 1.02 ± 0.049

AAGGCTTCGG
switch fluorescence ratio: 0.998 ± 0.032

AAGGCTTTCT
switch fluorescence ratio: 1.02 ± 0.032

AAGGGAAATT
switch fluorescence ratio: 0.983 ± 0.025

AAGGGAATGA
switch fluorescence ratio: 0.987 ± 0.016

AAGGGACAGC
switch fluorescence ratio: 1.03 ± 0.021

AAGGGACATT
switch fluorescence ratio: 1.01 ± 0.012

AAGGGACTCG
switch fluorescence ratio: 1.04 ± 0.059

AAGGGAGCAA
switch fluorescence ratio: 1.09 ± 0.037

AAGGGAGTCA
switch fluorescence ratio: 0.992 ± 0.031

AAGGGATTCT
switch fluorescence ratio: 1.03 ± 0.084

AAGGGATTTA
switch fluorescence ratio: 1.04 ± 0.034

AAGGGCAACG
switch fluorescence ratio: 0.974 ± 0.063

AAGGGCGATT
switch fluorescence ratio: 1.02 ± 0.055

AAGGGCGTGG
switch fluorescence ratio: 0.982 ± 0.02

AAGGGCTATT
switch fluorescence ratio: 1 ± 0.029

AAGGGCTCAA
switch fluorescence ratio: 1.02 ± 0.011

AAGGGCTTAC
switch fluorescence ratio: 1.135 ± 0.0058

AAGGGCTTTT
switch fluorescence ratio: 1.01 ± 0.036

AAGGGGAATT
switch fluorescence ratio: 1.01 ± 0.049

AAGGGGACGA
switch fluorescence ratio: 0.978 ± 0.033

AAGGGGAGGG
switch fluorescence ratio: 1 ± 0.013

AAGGGGATCG
switch fluorescence ratio: 1.03 ± 0.027

AAGGGGATTT
switch fluorescence ratio: 0.975 ± 0.016

AAGGGGCAAT
switch fluorescence ratio: 1.01 ± 0.055

AAGGGGCGCT
switch fluorescence ratio: 1.01 ± 0.039

AAGGGGCTTA
switch fluorescence ratio: 0.961 ± 0.013

AAGGGGGAAC
switch fluorescence ratio: 1.002 ± 0.0052

AAGGGGGCTT
switch fluorescence ratio: 0.9943 ± 0.0025

AAGGGGGGGG
switch fluorescence ratio: 1.02 ± 0.055

AAGGGGGGTC
switch fluorescence ratio: 0.991 ± 0.042

AAGGGGGGTG
switch fluorescence ratio: 1.03 ± 0.048

AAGGGGGTCT
switch fluorescence ratio: 1.02 ± 0.083

AAGGGGGTTT
switch fluorescence ratio: 1 ± 0.036

AAGGGGTATC
switch fluorescence ratio: 1.02 ± 0.05

AAGGGGTCTG
switch fluorescence ratio: 0.979 ± 0.02

AAGGGGTTGA
switch fluorescence ratio: 1.01 ± 0.023

AAGGGGTTTC
switch fluorescence ratio: 0.9746 ± 0.0067

AAGGGTGATG
switch fluorescence ratio: 1 ± 0.049

AAGGGTGGGT
switch fluorescence ratio: 0.9876 ± 0.0045

AAGGGTTGCT
switch fluorescence ratio: 1.01 ± 0.042

AAGGGTTGTC
switch fluorescence ratio: 0.999 ± 0.088

AAGGGTTTAC
switch fluorescence ratio: 0.995 ± 0.035

AAGGGTTTAG
switch fluorescence ratio: 1 ± 0.067

AAGGTAAGAG
switch fluorescence ratio: 0.999 ± 0.037

AAGGTAAGGT
switch fluorescence ratio: 1 ± 0.023

AAGGTAGGCG
switch fluorescence ratio: 0.987 ± 0.011

AAGGTAGTCT
switch fluorescence ratio: 1 ± 0.024

AAGGTATGTC
switch fluorescence ratio: 1.01 ± 0.063

AAGGTATGTG
switch fluorescence ratio: 1.025 ± 0.0038

AAGGTCGCGG
switch fluorescence ratio: 1 ± 0.017

AAGGTCGTCA
switch fluorescence ratio: 0.9613 ± 0.0023

AAGGTGCAAG
switch fluorescence ratio: 1.03 ± 0.053

AAGGTGGATG
switch fluorescence ratio: 0.992 ± 0.021

AAGGTGGGAC
switch fluorescence ratio: 1.02 ± 0.021

AAGGTGGGTA
switch fluorescence ratio: 0.99 ± 0.031

AAGGTGGGTG
switch fluorescence ratio: 0.999 ± 0.029

AAGGTGTAGC
switch fluorescence ratio: 0.9839 ± 0.0091

AAGGTGTCGA
switch fluorescence ratio: 0.967 ± 0.019

AAGGTGTGTT
switch fluorescence ratio: 1.08 ± 0.068

AAGGTGTTTC
switch fluorescence ratio: 1.083 ± 0.0066

AAGGTTCCTG
switch fluorescence ratio: 0.98 ± 0.03

AAGGTTGCGT
switch fluorescence ratio: 0.986 ± 0.04

AAGGTTTCAT
switch fluorescence ratio: 1 ± 0.031

AAGGTTTCGG
switch fluorescence ratio: 0.985 ± 0.038

AAGGTTTTAA
switch fluorescence ratio: 0.9825 ± 0.0066

AAGGTTTTTG
switch fluorescence ratio: 1 ± 0.03

AAGTAAGTTG
switch fluorescence ratio: 0.9806 ± 0.0064

AAGTACAGCG
switch fluorescence ratio: 1.03 ± 0.026

AAGTACGAGG
switch fluorescence ratio: 1.27 ± 0.17

AAGTACGCTG
switch fluorescence ratio: 1 ± 0.11

AAGTACGGTG
switch fluorescence ratio: 1.19 ± 0.089

AAGTAGCGCT
switch fluorescence ratio: 1 ± 0.024

AAGTAGCTAT
switch fluorescence ratio: 1.01 ± 0.043

AAGTAGGAGT
switch fluorescence ratio: 0.994 ± 0.034

AAGTAGGGGC
switch fluorescence ratio: 1.02 ± 0.015

AAGTAGGGTA
switch fluorescence ratio: 1.03 ± 0.025

AAGTAGTGCG
switch fluorescence ratio: 1.01 ± 0.041

AAGTAGTTTT
switch fluorescence ratio: 0.985 ± 0.024

AAGTATAAGG
switch fluorescence ratio: 0.994 ± 0.011

AAGTATATGA
switch fluorescence ratio: 1.004 ± 0.0083

AAGTATATTT
switch fluorescence ratio: 1.001 ± 0.0047

AAGTATGGGG
switch fluorescence ratio: 0.978 ± 0.021

AAGTATGTTC
switch fluorescence ratio: 1.004 ± 0.0014

AAGTATTTAG
switch fluorescence ratio: 0.994 ± 0.024

AAGTATTTTT
switch fluorescence ratio: 1.018 ± 0.0058

AAGTCAGGGG
switch fluorescence ratio: 1.05 ± 0.13

AAGTCATGGG
switch fluorescence ratio: 1.01 ± 0.031

AAGTCCGGGA
switch fluorescence ratio: 0.998 ± 0.035

AAGTCCGGGC
switch fluorescence ratio: 1.02 ± 0.018

AAGTCGGATA
switch fluorescence ratio: 1 ± 0.028

AAGTCTTTCG
switch fluorescence ratio: 1.01 ± 0.012

AAGTGCGGGC
switch fluorescence ratio: 1.04 ± 0.027

AAGTGCTACC
switch fluorescence ratio: 1.02 ± 0.06

AAGTGCTGTG
switch fluorescence ratio: 0.996 ± 0.029

AAGTGGAGTC
switch fluorescence ratio: 1.05 ± 0.085

AAGTGGCCGG
switch fluorescence ratio: 0.961 ± 0.074

AAGTGGGAAT
switch fluorescence ratio: 1.02 ± 0.013

AAGTGGGGG
switch fluorescence ratio: 0.992 ± 0.016

AAGTGGGGTG
switch fluorescence ratio: 0.982 ± 0.019

AAGTGGGTAT
switch fluorescence ratio: 1.16 ± 0.23

AAGTGGTTAG
switch fluorescence ratio: 0.98 ± 0.027

AAGTGTGGGT
switch fluorescence ratio: 1 ± 0.075

AAGTGTTATT
switch fluorescence ratio: 0.992 ± 0.026

AAGTTAATGG
switch fluorescence ratio: 1.015 ± 0.0071

AAGTTACAGT
switch fluorescence ratio: 1.04 ± 0.036

AAGTTAGGTC
switch fluorescence ratio: 0.969 ± 0.047

AAGTTATAAC
switch fluorescence ratio: 0.956 ± 0.067

AAGTTCACGT
switch fluorescence ratio: 0.996 ± 0.02

AAGTTCGTTT
switch fluorescence ratio: 0.986 ± 0.026

AAGTTGAAGG
switch fluorescence ratio: 1 ± 0.013

AAGTTGAGGA
switch fluorescence ratio: 0.978 ± 0.016

AAGTTGAGTG
switch fluorescence ratio: 0.9472 ± 0.0088

AAGTTGCGGA
switch fluorescence ratio: 0.975 ± 0.019

AAGTTGGGAG
switch fluorescence ratio: 1 ± 0.019

AAGTTGGGTT
switch fluorescence ratio: 0.9633 ± 0.0079

AAGTTGTCAA
switch fluorescence ratio: 1.011 ± 0.0052

AAGTTGTGAC
switch fluorescence ratio: 0.997 ± 0.028

AAGTTTAGGG
switch fluorescence ratio: 0.996 ± 0.027

AAGTTTATCT
switch fluorescence ratio: 0.989 ± 0.02

AAGTTTCACG
switch fluorescence ratio: 1 ± 0.058

AAGTTTGGTG
switch fluorescence ratio: 0.986 ± 0.042

AAGTTTGTAG
switch fluorescence ratio: 1 ± 0.03

AAGTTTTGTT
switch fluorescence ratio: 0.987 ± 0.023

AATAAAAGGA
switch fluorescence ratio: 0.997 ± 0.013

AATAAAAGTT
switch fluorescence ratio: 1.1 ± 0.14

AATAAACAGG
switch fluorescence ratio: 1.08 ± 0.041

AATAAAGACG
switch fluorescence ratio: 0.952 ± 0.025

AATAAAGCGT
switch fluorescence ratio: 0.983 ± 0.028

AATAAATCAT
switch fluorescence ratio: 0.992 ± 0.024

AATAAATGTA
switch fluorescence ratio: 1.04 ± 0.048

AATAACACGT
switch fluorescence ratio: 1 ± 0.026

AATAACTACC
switch fluorescence ratio: 1.15 ± 0.032

AATAACTGGT
switch fluorescence ratio: 1.04 ± 0.028

AATAAGAGGA
switch fluorescence ratio: 1.02 ± 0.026

AATAAGATTT
switch fluorescence ratio: 1.02 ± 0.026

AATAAGGCAT
switch fluorescence ratio: 1.01 ± 0.024

AATAAGTATT
switch fluorescence ratio: 1.024 ± 0.003

AATAAGTCCT
switch fluorescence ratio: 1.03 ± 0.038

AATAATATAG
switch fluorescence ratio: 0.996 ± 0.031

AATAATATTT
switch fluorescence ratio: 1.01 ± 0.021

AATAATGGGG
switch fluorescence ratio: 0.981 ± 0.049

AATAATGTGC
switch fluorescence ratio: 0.987 ± 0.074

AATAATTGAC
switch fluorescence ratio: 1.099 ± 0.0086

AATACAGAGG
switch fluorescence ratio: 1.0069 ± 0.00059

AATACCGTTT
switch fluorescence ratio: 1.05 ± 0.03

AATACTGTCG
switch fluorescence ratio: 1.01 ± 0.016

AATAGAGTTA
switch fluorescence ratio: 1.02 ± 0.023

AATAGCAGGA
switch fluorescence ratio: 1.02 ± 0.02

AATAGCCTTG
switch fluorescence ratio: 1.02 ± 0.013

AATAGGAATT
switch fluorescence ratio: 0.9708 ± 0.0059

AATAGGAGAG
switch fluorescence ratio: 0.987 ± 0.0099

AATAGGCACA
switch fluorescence ratio: 1.07 ± 0.0015

AATAGGGCTT
switch fluorescence ratio: 0.978 ± 0.04

AATAGGTTGG
switch fluorescence ratio: 0.994 ± 0.029

AATATAGATG
switch fluorescence ratio: 0.9885 ± 0.007

AATATAGGT
switch fluorescence ratio: 1.02 ± 0.033

AATATATACG
switch fluorescence ratio: 1.0252 ± 0.00079

AATATATACT
switch fluorescence ratio: 1.04 ± 0.027

AATATCTGAC
switch fluorescence ratio: 1.18 ± 0.046

AATATGAG
switch fluorescence ratio: 1.02 ± 0.018

AATATGCTCC
switch fluorescence ratio: 1.14 ± 0.064

AATATGGCGT
switch fluorescence ratio: 1.01 ± 0.029

AATATTCATT
switch fluorescence ratio: 0.985 ± 0.069

AATATTCTAG
switch fluorescence ratio: 0.994 ± 0.019

AATATTGATG
switch fluorescence ratio: 1.02 ± 0.044

AATATTGCAC
switch fluorescence ratio: 1.04 ± 0.021

AATATTGGAT
switch fluorescence ratio: 1.01 ± 0.023

AATATTTCGC
switch fluorescence ratio: 1.02 ± 0.018

AATATTTGAG
switch fluorescence ratio: 0.998 ± 0.02

AATATTTGTG
switch fluorescence ratio: 1.15 ± 0.23

AATCAGAAAG
switch fluorescence ratio: 1.15 ± 0.24

AATCATCCTC
switch fluorescence ratio: 1.06 ± 0.043

AATCATGGCG
switch fluorescence ratio: 0.991 ± 0.07

AATCATGTAG
switch fluorescence ratio: 1.01 ± 0.011

AATCATTAGC
switch fluorescence ratio: 0.985 ± 0.049

AATCCCTGGG
switch fluorescence ratio: 1.07 ± 0.033

AATCCGCGGA
switch fluorescence ratio: 0.964 ± 0.013

AATCCTGGCG
switch fluorescence ratio: 1.01 ± 0.032

AATCGCGGCC
switch fluorescence ratio: 1.032 ± 0.0085

AATCGCGGTA
switch fluorescence ratio: 1.05 ± 0.033

AATCGGGCGT
switch fluorescence ratio: 0.982 ± 0.052

AATCGGGCTG
switch fluorescence ratio: 0.962 ± 0.042

AATCGGGGGT
switch fluorescence ratio: 1.002 ± 0.0097

AATCGTACAG
switch fluorescence ratio: 1.07 ± 0.019

AATCGTGGTG
switch fluorescence ratio: 0.982 ± 0.047

AATCGTGTAT
switch fluorescence ratio: 0.983 ± 0.035

AATCGTTGCT
switch fluorescence ratio: 0.952 ± 0.039

AATCTAACGT
switch fluorescence ratio: 0.9937 ± 0.008

AATCTAGTGT
switch fluorescence ratio: 0.996 ± 0.019

AATCTATATT
switch fluorescence ratio: 1.01 ± 0.025

AATCTCGTAA
switch fluorescence ratio: 1.02 ± 0.023

AATCTGAAGA
switch fluorescence ratio: 0.9983 ± 0.0097

AATCTGGGGG
switch fluorescence ratio: 1.01 ± 0.018

AATCTGTGTG
switch fluorescence ratio: 0.963 ± 0.042

AATCTTCTAT
switch fluorescence ratio: 1.01 ± 0.024

AATCTTGGTT
switch fluorescence ratio: 0.959 ± 0.032
